The results in this text go back to patent US20230212554A1.

Substrate in assay [1]: NP of A/Wisconsin/67/2005(H3N2/H3W) (influenza A virus A/Wisconsin/67/2005 (H3N2))
The experiment in a line: sandwich ELISA, capture IgG; NP of lysed virus titrated; HRP-NP16 detection. A general note: In an ELISA, binding on a coated surface is turned into a signal by an enzyme label.

Substrate in assay [2]: NP of A/Wisconsin/67/2005(H3N2/H3W) (influenza A virus A/Wisconsin/67/2005 (H3N2))
Put plainly: sandwich ELISA, capture IgG; NP of lysed virus titrated; HRP-NP17 detection.

Substrate in assay [3]: NP of A/Wisconsin/67/2005(H3N2/H3W) (influenza A virus A/Wisconsin/67/2005 (H3N2))
Put plainly: ELISA on virus-infected fixed MDCK cells.

Chain of NP of A/Wisconsin/67/2005(H3N2/H3W) (influenza A virus A/Wisconsin/67/2005 (H3N2)) (P03466 whole entry): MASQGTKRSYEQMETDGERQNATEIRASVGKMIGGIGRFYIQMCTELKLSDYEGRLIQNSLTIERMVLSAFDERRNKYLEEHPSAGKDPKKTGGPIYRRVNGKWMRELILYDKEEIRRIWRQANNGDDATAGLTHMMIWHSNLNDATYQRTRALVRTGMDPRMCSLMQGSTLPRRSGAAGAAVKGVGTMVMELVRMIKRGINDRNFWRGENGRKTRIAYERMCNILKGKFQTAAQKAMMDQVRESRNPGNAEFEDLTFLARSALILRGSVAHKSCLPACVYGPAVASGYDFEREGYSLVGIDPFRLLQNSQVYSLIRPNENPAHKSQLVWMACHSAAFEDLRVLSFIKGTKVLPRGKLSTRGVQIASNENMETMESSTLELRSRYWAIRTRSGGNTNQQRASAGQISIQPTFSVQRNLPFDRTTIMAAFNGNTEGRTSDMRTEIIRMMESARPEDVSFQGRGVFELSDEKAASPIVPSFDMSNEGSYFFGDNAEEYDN

B1: NP22 (antibody, V domains shown)
VH: EVQLVESGGGLVQPGGSLRLSCAASGFTISDWSIHWVRQAPGKGLEWVAGIWPYWGSTSYADSVKGRFTISADTSKNTAYLQMNSLRAEDTAVYYCARGFYSWFDYWGQGTLVTVSS
VL: DIQMTQSPSSLSASVGDRVTITCRASQDVFSWVAWYQQKPGKAPKLLISSASSLYSGVPSRFSGSGSGTDFTLTISSLQPEDFATYYCQQSWDYPITFGQGTKVEIKR
For orientation: EC50 means the midpoint of the concentration-response curve. Consider B1, for which the EC50 is 91.4 nM in assay [1] and 82.8 nM in assay [2].

B2: NP5 (antibody, V domains shown)
VH: EVQLVESGGGLVQPGGSLRLSCAASGFTISNGSIHWVRQAPGKGLEWVAGIWPSGGSTSYADSVKGRFTISADTINNSAYLQMNSLRAEDTAVYYCARWNYWGQGTLVTVSS
VL: DIQMTQSPSSLSASVGDRVTITCRASQDVGWSVAWYQQKPGKAPKLLIYGSRWLYSGVPSRFSGSGSGTDFTLTISSLQPEDFATYYCQQGYNGPLTFGQGTKVEIKR
As for B2, the EC50 was determined as 3.13 nM in assay [1] and 0.879 nM in assay [2].

B3: NP18 (antibody, V domains shown)
VH: EVQLVESGGGLVQPGGSLRLSCAASGFTISGGGIHWVRQAPGKGLEWVASIWPSWGSTSYADSVKGRFTISADTSKNTAYLQMNSLRAEDTAVYYCARFHNGGFLVMDYWGQGTLVTVSS
VL: DIQMTQSSSSLSASVGDRVTITCRASQDVGYYVAWYQQKPGKAPKLLIYGPRFLYSGVPSRFSGSGSGTDFTLTISSLQPEDFATYYCQQYSNWPITFGQGTKVEIKR
B3: the EC50 in assay [3] turned out to be 0.192 nM; in assay [2], 1000 nM.

B4: NP6 (antibody, V domains shown)
VH: EVQLVESGGGLVQPGGSLRLSCAASGFTINDGSIHWVRQAPGKGLEWVAGIGPFGGFTYYADSVKGRFTISADTSKNTAYLQMNSLRAEDTAVYYCARSGYSGSFDYWGQGTLVTVSS
VL: DIQMTQSPSSLSASVGDRVTITCRASQDVYFGVAWYQQKPGKAPKLLIYGTSYLYSGVPSRFSGSGSGTDFTLTISSLQPEDFATYYCQQFSNWPITFGQGTKVEIKR
Consider B4, for which the EC50 in assay [1] was found to be 2.7 nM; in assay [2], 1.98 nM.

B5: NP19 (antibody, V domains shown)
VH: EVQLVESGGGLVQPGGSLRLSCAASGFTISSWGIHWVRQAPGKGLEWVAGIGPFWGYTSYADSVKGRFTISADTSKNTAYLQMNSLRAEDTAVYYCARFGVDNYGYMDYWGQGTLVTVSS
VL: DIQMTQSPSSLSASVGDRVTITCRASQDVSGWVAWYQQKPGKAPKLLISWSTGLYSGVPSRFSGSGSGTDFTLTISSLQPEDFATYYCQQYFNFPVTFGQGTKVEIKR
Consider B5, for which the EC50 in assay [3] came out at 0.215 nM; in assay [1], 3.88 nM; in assay [2], 0.765 nM.

B6: NP7 (antibody, V domains shown)
VH: EVQLVESGGGLVQPGGSLRLSCAASGFTISNGGIHWVRQAPGKGLEWVAGIGPYGGFTSYADSVKGRFTISADTSKNTAYLQMNSLRAEDTAVYYCARFYSNYYGYHGVMDYWGQGTLVTVSS
VL: DIQMTQSPSSLSASVGDRVTITCRASQDVFGWVAWYQQKPGKAPKLLISYSASLYSGVPSRFSGSGSGTDFTLTISSLQPEDFATYYCQQYFNYPLTFGQGTKVEIKR
Turning to B6, the 50% effective concentration (EC50) in assay [1] was 2.26 nM; in assay [2] it was 0.821 nM.

B7: NP15 (antibody, V domains shown)
VH: EVQLVESGGGLVQPGGSLRLSCAASGFTISNWYIHWVRQAPGKGLEWVAGIGPYGGSTYYADSVKGRFTISADTSKNTAYLQMNSLRAEDTAVYYCARFHWDHLHGMDYWGQGTLVTVSS
VL: DIQMTQSPSSLSASVGDRVTITCRASQDVDNNVAWYQQKPGKAPKLLISYSTGLYSGVPSRFSGSGSGTDFTLTISSLQPEDFATYYCQQYWNYPITFGQGTKVEIKR
In the case of B7, the 50% effective concentration (EC50) amounted to 0.449 nM in assay [3], 2.52 nM in assay [1] and 0.779 nM in assay [2].

B8: NP16 (antibody, V domains shown)
VH: EVQLVESGGGLVQPGGSLRLSCAASGFTIGNSGIHWVRQAPGKGLEWVAWIGPYWGFTSYADSVKGRFTISADTSKNTAYLQMNSLRAEDTAVYYCARFGNHWHLFMDYWGQGTLVTVSS
VL: DIQMTQSPSSLSASVGDRVTITCRASQDVGSYVAWYQQKPGKAPKLLISWTTGLYSGVPSRFSGSGSGTDFTLTISSLQPEDFATYYCQQYFSYPVTFGQGTKVEIKR
For B8, the EC50 is 0.248 nM in assay [3], 4.1 nM in assay [1] and 0.891 nM in assay [2].

B9: NP3 (antibody, V domains shown)
VH: EVQLVESGGGLVQPGGSLRLSCAASGFTISNYGIHWVRQAPGKGLEWVAGIWPFGGFTSYADSVKGRFTISADTSKNTAYLQMNSLRAEDTAVYYCARFHWNDHGYMDYWGQGTLVTVSS
VL: DIQMTQSPSSLSASVGDRVTITCRASQDVGWYVAWYQQKPGKAPKLLIYSTTGLYSGVPSRFSGSGSGTDFTLTISSLQPEDFATYYCQQYYNYPITFGQGTKVEIKR
In the case of B9, the figures for the half-maximal effective concentration (EC50) in assay [3], in assay [1] and in assay [2] were 0.25 nM, 1.81 nM and 0.828 nM, respectively.

B10: NP21 (antibody, V domains shown)
VH: EVQLVESGGGLVQPGGSLRLSCAASGFTINGYGIHWVRQAPGKGLEWVAGIWPYGGSTFYADSVKGRFTISADTSKNTAYLQMNSLRAEDTAVYYCARFYNNHGGIMDYWGQGTLVTVSS
VL: DIQMTQSPSSLSASVGDRVTITCRASQDVYFYVAWYQQKPGKAPKLLIYGSRWLYSGVPSRFSGSGSGTDFTLTISSLQPEDFATYYCQQYSNFPVTFGQGTKVEIKR
Consider B10, for which the values for the EC50 in assay [1] and in assay [2] were 2.88 nM and 0.848 nM, respectively.

B11: NP17 (antibody, V domains shown)
VH: EVQLVESGGGLVQPGGSLRLSCAASGFTISGGSIHWVRQAPGKGLEWVASIWPFGGSTFYADSVKGRFTISADTSKNTAYLQMNSLRAEDTAVYYCARFGHGHNVIMDYWGQGTLVTVSS
VL: DIQMTQSPSSLSASVGDRVTITCRASQDVGYSVAWYQQKPGKAPKLLISSPGGLYSGVPSRFSGSGSGTDFTLTISSLQPEDFATYYCQQYYDYPVTFGQGTKVEIKR
For the molecule B11, the half-maximal effective concentration (EC50) in assay [1] is 3.09 nM; in assay [2], 1.07 nM.
